Measured values: article PMC6595482 (Molecular microbiology, 2018)

Target: E. coli RNA polymerase (E. coli) (UniProt P0A7Z4)
Sequence (P0A7Z4 whole entry, looked up): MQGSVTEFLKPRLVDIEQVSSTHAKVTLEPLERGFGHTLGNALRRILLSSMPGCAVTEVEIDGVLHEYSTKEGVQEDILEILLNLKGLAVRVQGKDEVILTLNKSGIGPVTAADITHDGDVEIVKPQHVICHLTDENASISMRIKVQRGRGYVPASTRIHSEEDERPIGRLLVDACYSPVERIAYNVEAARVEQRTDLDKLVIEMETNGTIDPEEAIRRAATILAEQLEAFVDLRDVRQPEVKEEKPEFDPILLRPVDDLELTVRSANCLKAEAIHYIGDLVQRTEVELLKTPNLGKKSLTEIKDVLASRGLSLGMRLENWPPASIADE

B1: Escherichia coli RfaH (natural protein)
chain: MQSWYLLYCKRGQLQRAQEHLERQAVNCLAPMITLEKIVRGKRTAVSEPLFPNYLFVEFDPEVIHTTTINATRGVSHFVRFGASPAIVPSAVIHQLSVYKPKDIVDPATPYPGDKVIITEGAFEGFQAIFTEPDGEARSMLLLNLINKEIKHSVKNTEFRKL
For B1, the Exo III footprinting of the upstream boundary of the ops TEC (100 nM RfaH) was 7 nt.
